Data published in patent US6830925.

T1: Syntide 2
T1 chain: PLARTLSVAGLPGKK

T2: CREBtide
T2 chain: KRREILSRRPSYR

T3: Calmodulin Dependent Protein Kinase Substrate
T3 chain: PLSRTLSVSS

B1: Xpress-CaMK-X1 fusion protein (CaMK-X1 coding sequence fused to the Xpress epitope, stably expressed in HEK293 cells) (protein)
chain: MGRKEEDDCSSWKKQTTNIRKTFIFMEVLGSGAFSEVFLVKQRLTGKLFALKCIKKSPAFRDSSLENEIAVLKKIKHENIVTLEDIYESTTHYYLVMQLVSGGELFDRILERGVYTEKDASLVIQQVLSAVKYLHENGIVHRDLKPENLLYLTPEENSKIMITDFGLSKMEQNGIMSTACGTPGYVAPEVLAQKPYSKAVDCWSIGVITYILLCGYPPFYEETESKLFEKIKEGYYEFESPFWDDISESAKDFICHLLEKDPNERYTCEKALSHPWIDGNTALHRDIYPSVSLQIQKNFAKSKWRQAFNAAAVVHHMRKLHMNLHSPGVRPEVENRPPETQASETSRPSSPEITITEAPVLDHSVALPALTQLPCQHGRRPTAPGGRSLNCLVNGSLHISSSLVPMHQGSLAAGPCGCCSSCLNIGSKGKSSYCSEPTLLKKANKKQNFKSEVMVPVKASGSSHCRAGQTGVCLIM
B2: Histidine tagged CaMK-X1 expressed in Sf9 cells and purified with a Ni2+ affinity column (protein)
chain: B1 chain

Assays:
[1] = molecular target: calmodulin (CalBiochem), P0DP23
[2] = molecular target: T1, Syntide 2
[3] = molecular target: T2, CREBtide
[4] = molecular target: T3, Calmodulin Dependent Protein Kinase …

Row | Protein | in vitro kinase assay (32P incorporation into peptides) with and without calmodulin [1] | in vitro kinase assay (32P incorporation) with immunoprecipitated CaMK-X1 [2] | in vitro kinase assay (32P incorporation) with immunoprecipitated CaMK-X1 [3] | in vitro kinase assay (32P incorporation) with immunoprecipitated CaMK-X1 [4] | in vitro kinase assay (rate of peptide phosphorylation) with and without Ca2+ and calmodulin [1] | in vitro kinase assay (32P incorporation) with Ni2+ purified CaMK-X1 [2] | in vitro kinase assay (32P incorporation) with Ni2+ purified CaMK-X1 [3] | in vitro kinase assay (32P incorporation) with Ni2+ purified CaMK-X1 [4]
1 | B1 | The degree of phosphorylation is augmented in the presence of calmodulin | CaMK-X1 phosphorylated CREBtide and Syntide 2 in vitro | CaMK-X1 phosphorylated CREBtide and Syntide 2 in vitro | In contrast, CaMK-X1 could not phosphorylate control peptide | – | – | – | –
2 | B2 | – | – | – | – | The rate of phosphorylation is increased in the presence of Ca^2+ and calmodulin | CREBtide and Syntide 2 are phosphorylated by the purified CaMK-X1 | CREBtide and Syntide 2 are phosphorylated by the purified CaMK-X1 | Syntide 2 and CREBtide had higher incorporation of ^32P than the control peptide
